Reference: article doi:10.1101/2023.10.16.562450 (bioRxiv, 2023)
Several values for one entry are separate records, joined by “and”; a condition that tells them apart may be missing. Identical values can stand only once.

B1: Fab 4B8 (Fab, V domains shown)
VH: EVQLVESGGGLIQPGGSLRLSCAASGFTISSKYMSWVRQAPGKGLEWVSIIYSSGSTYYADSVKGRFTISRDISKNTLYLQMNSLRAEDTAVYYCASLGSGSAFGYWGQGTLVTVSS
VL: DIVMTQSPSSVSASVGDRVTITCRASQGISTWLAWYQQKPGKAPRLLIYAASSLQSGVPSRFSGSGSGTDFTLTISSLQPEDFATYYCQQANSFPFTFGPGTKVEIK
B2: mAb 4B8 (IgG) (antibody, V domains shown)
VH: EVQLVESGGGLIQPGGSLRLSCAASGFTISSKYMSWVRQAPGKGLEWVSIIYSSGSTYYADSVKGRFTISRDISKNTLYLQMNSLRAEDTAVYYCASLGSGSAFGYWGQGTLVTVSS
VL: DIVMTQSPSSVSASVGDRVTITCRASQGISTWLAWYQQKPGKAPRLLIYAASSLQSGVPSRFSGSGSGTDFTLTISSLQPEDFATYYCQQANSFPFTFGPGTKVEIK
B3: Fab 14G5 (Fab, V domains shown)
VH: QVQLVQSGAEVKKPGESLKISCKGSGYSFTSYWIGWVRQMPGKGLEWMGIIYPGDSDTRYSPSFQGQVTMSADRSISTAYLQWSSLKASDTAMYYCARSNVDGSTDYWGQGTLVTVSS
VL: SYELTQPPSVSVSPGQTARITCSGDALPKQYAFWYQQKPGQAPVLVIYKDSERPSGIPERFSGSSSGTTVTLTISGVQAEDEADYYCQSADSSDTYVPYVFGTGTKVTVL
B4: mAb 14G5 (IgG) (antibody, V domains shown)
VH: QVQLVQSGAEVKKPGESLKISCKGSGYSFTSYWIGWVRQMPGKGLEWMGIIYPGDSDTRYSPSFQGQVTMSADRSISTAYLQWSSLKASDTAMYYCARSNVDGSTDYWGQGTLVTVSS
VL: SYELTQPPSVSVSPGQTARITCSGDALPKQYAFWYQQKPGQAPVLVIYKDSERPSGIPERFSGSSSGTTVTLTISGVQAEDEADYYCQSADSSDTYVPYVFGTGTKVTVL
B5: Fab 2E11 (Fab, V domains shown)
VH: SVELIESGGGVVQPGRSLRLSCAASGFTFSNYAMHWVRQAPGKGLEWVAFISYDGSNKYYADSVKGRFTISRDNSKNTLSLQMNSLRAEDTALYYCARVFNGYEGDYWGQGTLVTVSS
VL: LPVLTQPPSVSVSPGQTARITCSGDALPKKYAYWYQQKSGQAPVLVIYEDSKRPSGIPERFSGSSSGTMATLTISGAQVEDEADYYCYSTDSSGNLYVFGTGTKVTVL
B6: mAb 2E11 (IgG) (antibody, V domains shown)
VH: SVELIESGGGVVQPGRSLRLSCAASGFTFSNYAMHWVRQAPGKGLEWVAFISYDGSNKYYADSVKGRFTISRDNSKNTLSLQMNSLRAEDTALYYCARVFNGYEGDYWGQGTLVTVSS
VL: LPVLTQPPSVSVSPGQTARITCSGDALPKKYAYWYQQKSGQAPVLVIYEDSKRPSGIPERFSGSSSGTMATLTISGAQVEDEADYYCYSTDSSGNLYVFGTGTKVTVL
B7: Fab 4F10 (Fab, V domains shown)
VH: EVQLLESGPGLVKPSQTLSLTCTVSGGSISSGGYYWSWIRQHPGKGLEWIGYIYYSGSTYYNPSLKSRVAMSVDTSKNQFSLTLSSVTAADTAVYYCARAIDNFYDNSIWGQGTLVTVSS
VL: DIQMTQSPSSLSASVGDRVTIACRASQSITNFLNWYQQKPGKAPKLLIYAVSNLQSGVPSRFSGSGSGTDFTLTISSVRPEDFATYFCQQSYSPPYTFGQGTKVDIK
B8: mAb 4F10 (IgG) (antibody, V domains shown)
VH: EVQLLESGPGLVKPSQTLSLTCTVSGGSISSGGYYWSWIRQHPGKGLEWIGYIYYSGSTYYNPSLKSRVAMSVDTSKNQFSLTLSSVTAADTAVYYCARAIDNFYDNSIWGQGTLVTVSS
VL: DIQMTQSPSSLSASVGDRVTIACRASQSITNFLNWYQQKPGKAPKLLIYAVSNLQSGVPSRFSGSGSGTDFTLTISSVRPEDFATYFCQQSYSPPYTFGQGTKVDIK
B9: Fab 3G2 (Fab, V domains shown)
VH: EVQLLESGGGLIQPGGSLRLSCAASGLTVSNNYMNWVRQAPGKGLEWVSIIYSSGSTYYADSVKGRFTISRDTRKNTLYLQMHSLRVEDTAVYYCARERGWLDYWGQGTLVTVSS
VL: VIWMTQSPSSLSASVGDRVTITCRASQSVSSHLNWYQQKPGKAPKLLIYAVSSLQSGVPSRFSGGDSGTDFTLTIASLQPEDFATYYCQQTYTIPRTFGQGTKVEIK
B10: mAb 3G2 (IgG) (antibody, V domains shown)
VH: EVQLLESGGGLIQPGGSLRLSCAASGLTVSNNYMNWVRQAPGKGLEWVSIIYSSGSTYYADSVKGRFTISRDTRKNTLYLQMHSLRVEDTAVYYCARERGWLDYWGQGTLVTVSS
VL: VIWMTQSPSSLSASVGDRVTITCRASQSVSSHLNWYQQKPGKAPKLLIYAVSSLQSGVPSRFSGGDSGTDFTLTIASLQPEDFATYYCQQTYTIPRTFGQGTKVEIK

Legend:
[1] = molecular target: recombinant ZIKV sNS1 (full-length ZIKV NS1, residues 3-352, GZ02 strain) (Zika virus (GZ02 strain)); assay: negative staining EM
[2] = molecular target: recombinant ZIKV sNS1 (full-length ZIKV NS1, residues 3-352, GZ02 strain) (Zika virus, strain GZ02, UniProt A0A146CJG7, strain); assay: cryo-EM structure
[3] = molecular target: ZIKV-derived sNS1 (Zika virus, strain ; stand-in …, UniProt A0A146CJG7); assay: ELISA
[4] = molecular target: cell-surface ZIKV NS1 (Zika virus, strain ; stand-in …, UniProt A0A146CJG7); assay: flow cytometry on cells
[5] = molecular target: DENV4 NS1 (Dengue virus 4, strain ; …, UniProt P09866); assay: ELISA
[6] = molecular target: DENV2 NS1 (Dengue virus 2, strain ; …, UniProt P29990); assay: ELISA
Sequence of DENV2 NS1 (P29990 776-1127): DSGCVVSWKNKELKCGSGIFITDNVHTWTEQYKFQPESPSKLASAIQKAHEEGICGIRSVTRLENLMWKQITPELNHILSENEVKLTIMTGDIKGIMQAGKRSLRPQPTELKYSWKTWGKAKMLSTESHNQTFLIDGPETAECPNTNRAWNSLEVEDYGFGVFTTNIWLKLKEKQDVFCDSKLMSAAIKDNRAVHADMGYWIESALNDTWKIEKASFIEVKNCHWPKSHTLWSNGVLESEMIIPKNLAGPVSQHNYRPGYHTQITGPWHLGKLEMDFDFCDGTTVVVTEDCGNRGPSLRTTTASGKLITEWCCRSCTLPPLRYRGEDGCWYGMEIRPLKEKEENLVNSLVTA

Sequence of DENV4 NS1 (P09866 775-1126): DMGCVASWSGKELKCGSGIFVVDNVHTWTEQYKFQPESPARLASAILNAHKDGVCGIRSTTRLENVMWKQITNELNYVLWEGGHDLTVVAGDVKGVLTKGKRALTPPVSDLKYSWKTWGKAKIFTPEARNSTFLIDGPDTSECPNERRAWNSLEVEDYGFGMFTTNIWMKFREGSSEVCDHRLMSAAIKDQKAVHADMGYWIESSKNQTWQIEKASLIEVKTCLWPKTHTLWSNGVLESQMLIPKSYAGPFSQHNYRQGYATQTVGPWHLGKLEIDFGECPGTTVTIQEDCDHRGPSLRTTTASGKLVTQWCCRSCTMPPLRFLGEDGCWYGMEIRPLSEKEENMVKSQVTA

Molecule | stoichiometry N [2] | Kd [3] | percentage of cell staining at 10 ug/ml [4] | other results
recombinant ZIKV sNS1 (full-length ZIKV NS1, residues 3-352, GZ02 strain) (natural protein) | – | – | – | stoichiometry N [1]: 4
B1 | 1 ratio Fab to NS1 and 4 copies of Fab fragment for each NS1 tetramer | – | – | –
B2 | – | 0.8 ± 0.33 nM | 70% | –
B3 | 1 ratio Fab to NS1 | – | – | –
B4 | – | 0.15 ± 0.03 nM | 63% | –
B5 | 1 ratio Fab to NS1 | – | – | –
B6 | – | 0.22 ± 0.04 nM | 59% | –
B7 | 1 ratio Fab to NS1 | – | – | –
B8 | – | 0.06 ± 0.01 nM | 58% | binding result [5]: binds; binding result [6]: binds
B9 | 1 ratio Fab to NS1 and 4 copies of Fab fragment for each NS1 tetramer | – | – | –
B10 | – | 0.12 ± 0.02 nM | 76% | –
